The record followed here is patent US20210285949A1.

The assay concerns the target human recombinant adrenomedullin receptor (CRLR+RAMP3) (human).

On to “antagonist (human ADM 22-52) (from UniProt P35318) (peptide)”, for which the IC50 (read off the curve); cAMP HTRF assay, agonist 5.63 nM hADM is 200 nM.
